# Values of other authors as cited in PMC7290323.
# Target: GPP130 luminal domain (Homo sapiens) (UniProt O00461)
# UniProt O00461, sequence (O00461 34-696): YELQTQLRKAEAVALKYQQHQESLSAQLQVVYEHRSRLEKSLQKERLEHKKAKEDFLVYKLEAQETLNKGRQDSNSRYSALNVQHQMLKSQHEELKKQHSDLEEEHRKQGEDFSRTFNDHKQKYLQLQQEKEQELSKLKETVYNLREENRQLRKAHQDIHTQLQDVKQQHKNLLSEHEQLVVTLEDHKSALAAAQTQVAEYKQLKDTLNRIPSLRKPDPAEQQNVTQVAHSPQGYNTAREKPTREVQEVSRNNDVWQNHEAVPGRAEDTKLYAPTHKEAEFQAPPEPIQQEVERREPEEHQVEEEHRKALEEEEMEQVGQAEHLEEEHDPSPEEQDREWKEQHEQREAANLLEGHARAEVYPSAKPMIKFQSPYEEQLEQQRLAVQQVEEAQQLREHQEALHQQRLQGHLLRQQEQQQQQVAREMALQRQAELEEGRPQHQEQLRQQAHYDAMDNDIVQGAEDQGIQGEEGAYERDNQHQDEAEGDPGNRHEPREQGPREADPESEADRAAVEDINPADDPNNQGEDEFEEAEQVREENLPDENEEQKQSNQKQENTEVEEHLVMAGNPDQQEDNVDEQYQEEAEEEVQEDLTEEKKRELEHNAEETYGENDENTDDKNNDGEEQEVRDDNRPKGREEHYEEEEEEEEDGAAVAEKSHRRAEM
substance,measurement,value
Shiga toxin 1 B subunit (STxB/STx1B) (from UniProt Q32GM0),Kd,150 nM
